Data: patent publication US20220025010A1 (ANTAG THERAPEUTICS, published 2022)
*1 amine or outer side, *2 acyl side, *3 side chain or, on linkers, in order; H or OH if unused. Where no end group is shown, it is not given here. Side-chain parts run from the residue outwards. The star is where a group is joined. C18 diacid = O=C(O)CCCCCCCCCCCCCCCCC(=O)*; C16 diacid = O=C(O)CCCCCCCCCCCCCCC(=O)*; γGlu = O=C(O)[C@H](CCC(=O)[*:2])N[*:1]; AEEA = NCCOCCOCC(=O)O

T1: human GIP receptor (human, UniProt P48546 22-466)
T1 sequence (looked up): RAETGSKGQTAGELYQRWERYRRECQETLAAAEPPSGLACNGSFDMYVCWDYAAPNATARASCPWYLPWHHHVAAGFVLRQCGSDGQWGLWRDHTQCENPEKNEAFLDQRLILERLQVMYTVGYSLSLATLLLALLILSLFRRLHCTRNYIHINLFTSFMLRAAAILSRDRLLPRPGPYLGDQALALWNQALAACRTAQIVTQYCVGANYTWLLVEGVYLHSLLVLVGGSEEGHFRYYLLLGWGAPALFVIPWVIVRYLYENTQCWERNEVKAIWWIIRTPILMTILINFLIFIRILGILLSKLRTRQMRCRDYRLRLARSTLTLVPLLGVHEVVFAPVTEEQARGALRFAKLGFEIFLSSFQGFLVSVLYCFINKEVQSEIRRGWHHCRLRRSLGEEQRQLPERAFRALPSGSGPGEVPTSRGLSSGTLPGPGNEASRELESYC

B1: AT384 (peptide)
peptide: SGTFISDYSIAMDRIK([AEEA-AEEA-γGlu-C18 diacid])QQDFVNWLLAQR-NH2
modifications: N-terminus assumed
SMILES: CC[C@H](C)[C@H](NC(=O)[C@H](CO)NC(=O)[C@H](Cc1ccc(O)cc1)NC(=O)[C@H](CC(=O)O)NC(=O)[C@H](CO)NC(=O)[C@@H](NC(=O)[C@H](Cc1ccccc1)NC(=O)[C@@H](NC(=O)CNC(=O)[C@@H](N)CO)[C@@H](C)O)[C@@H](C)CC)C(=O)N[C@@H](C)C(=O)N[C@@H](CCSC)C(=O)N[C@@H](CC(=O)O)C(=O)N[C@@H](CCCNC(=N)N)C(=O)N[C@H](C(=O)N[C@@H](CCCCNC(=O)COCCOCCNC(=O)COCCOCCNC(=O)CC[C@H](NC(=O)CCCCCCCCCCCCCCCCC(=O)O)C(=O)O)C(=O)N[C@@H](CCC(N)=O)C(=O)N[C@@H](CCC(N)=O)C(=O)N[C@@H](CC(=O)O)C(=O)N[C@@H](Cc1ccccc1)C(=O)N[C@H](C(=O)N[C@@H](CC(N)=O)C(=O)N[C@@H](Cc1c[nH]c2ccccc12)C(=O)N[C@@H](CC(C)C)C(=O)N[C@@H](CC(C)C)C(=O)N[C@@H](C)C(=O)N[C@@H](CCC(N)=O)C(=O)N[C@@H](CCCNC(=N)N)C(N)=O)C(C)C)[C@@H](C)CC
B2: AT393 (peptide)
peptide: SGTFISDYSIAMDRIK(C18 diacid)QQDFVNWLLAQR-NH2
modifications: N-terminus assumed
SMILES: CC[C@H](C)[C@H](NC(=O)[C@H](CO)NC(=O)[C@H](Cc1ccc(O)cc1)NC(=O)[C@H](CC(=O)O)NC(=O)[C@H](CO)NC(=O)[C@@H](NC(=O)[C@H](Cc1ccccc1)NC(=O)[C@@H](NC(=O)CNC(=O)[C@@H](N)CO)[C@@H](C)O)[C@@H](C)CC)C(=O)N[C@@H](C)C(=O)N[C@@H](CCSC)C(=O)N[C@@H](CC(=O)O)C(=O)N[C@@H](CCCNC(=N)N)C(=O)N[C@H](C(=O)N[C@@H](CCCCNC(=O)CCCCCCCCCCCCCCCCC(=O)O)C(=O)N[C@@H](CCC(N)=O)C(=O)N[C@@H](CCC(N)=O)C(=O)N[C@@H](CC(=O)O)C(=O)N[C@@H](Cc1ccccc1)C(=O)N[C@H](C(=O)N[C@@H](CC(N)=O)C(=O)N[C@@H](Cc1c[nH]c2ccccc12)C(=O)N[C@@H](CC(C)C)C(=O)N[C@@H](CC(C)C)C(=O)N[C@@H](C)C(=O)N[C@@H](CCC(N)=O)C(=O)N[C@@H](CCCNC(=N)N)C(N)=O)C(C)C)[C@@H](C)CC
B3: AT385 (peptide)
peptide: SGTFISDYSIAMDRIK([AEEA-AEEA-AEEA-γGlu-C18 diacid])QQDFVNWLLAQR-NH2
modifications: N-terminus assumed
SMILES: CC[C@H](C)[C@H](NC(=O)[C@H](CO)NC(=O)[C@H](Cc1ccc(O)cc1)NC(=O)[C@H](CC(=O)O)NC(=O)[C@H](CO)NC(=O)[C@@H](NC(=O)[C@H](Cc1ccccc1)NC(=O)[C@@H](NC(=O)CNC(=O)[C@@H](N)CO)[C@@H](C)O)[C@@H](C)CC)C(=O)N[C@@H](C)C(=O)N[C@@H](CCSC)C(=O)N[C@@H](CC(=O)O)C(=O)N[C@@H](CCCNC(=N)N)C(=O)N[C@H](C(=O)N[C@@H](CCCCNC(=O)COCCOCCNC(=O)COCCOCCNC(=O)COCCOCCNC(=O)CC[C@H](NC(=O)CCCCCCCCCCCCCCCCC(=O)O)C(=O)O)C(=O)N[C@@H](CCC(N)=O)C(=O)N[C@@H](CCC(N)=O)C(=O)N[C@@H](CC(=O)O)C(=O)N[C@@H](Cc1ccccc1)C(=O)N[C@H](C(=O)N[C@@H](CC(N)=O)C(=O)N[C@@H](Cc1c[nH]c2ccccc12)C(=O)N[C@@H](CC(C)C)C(=O)N[C@@H](CC(C)C)C(=O)N[C@@H](C)C(=O)N[C@@H](CCC(N)=O)C(=O)N[C@@H](CCCNC(=N)N)C(N)=O)C(C)C)[C@@H](C)CC
B4: AT354 (peptide)
peptide: ISDYSIAMDKIK(C16 diacid)QQDFVNWLLAQK-NH2
modifications: N-terminus assumed
SMILES: CC[C@H](C)[C@H](N)C(=O)N[C@@H](CO)C(=O)N[C@@H](CC(=O)O)C(=O)N[C@@H](Cc1ccc(O)cc1)C(=O)N[C@@H](CO)C(=O)N[C@H](C(=O)N[C@@H](C)C(=O)N[C@@H](CCSC)C(=O)N[C@@H](CC(=O)O)C(=O)N[C@@H](CCCCN)C(=O)N[C@H](C(=O)N[C@@H](CCCCNC(=O)CCCCCCCCCCCCCCC(=O)O)C(=O)N[C@@H](CCC(N)=O)C(=O)N[C@@H](CCC(N)=O)C(=O)N[C@@H](CC(=O)O)C(=O)N[C@@H](Cc1ccccc1)C(=O)N[C@H](C(=O)N[C@@H](CC(N)=O)C(=O)N[C@@H](Cc1c[nH]c2ccccc12)C(=O)N[C@@H](CC(C)C)C(=O)N[C@@H](CC(C)C)C(=O)N[C@@H](C)C(=O)N[C@@H](CCC(N)=O)C(=O)N[C@@H](CCCCN)C(N)=O)C(C)C)[C@@H](C)CC)[C@@H](C)CC
B5: AT355 (peptide)
peptide: SDYSIAMDKIK(C16 diacid)QQDFVNWLLAQK-NH2
modifications: N-terminus assumed
SMILES: CC[C@H](C)[C@H](NC(=O)[C@H](CO)NC(=O)[C@H](Cc1ccc(O)cc1)NC(=O)[C@H](CC(=O)O)NC(=O)[C@@H](N)CO)C(=O)N[C@@H](C)C(=O)N[C@@H](CCSC)C(=O)N[C@@H](CC(=O)O)C(=O)N[C@@H](CCCCN)C(=O)N[C@H](C(=O)N[C@@H](CCCCNC(=O)CCCCCCCCCCCCCCC(=O)O)C(=O)N[C@@H](CCC(N)=O)C(=O)N[C@@H](CCC(N)=O)C(=O)N[C@@H](CC(=O)O)C(=O)N[C@@H](Cc1ccccc1)C(=O)N[C@H](C(=O)N[C@@H](CC(N)=O)C(=O)N[C@@H](Cc1c[nH]c2ccccc12)C(=O)N[C@@H](CC(C)C)C(=O)N[C@@H](CC(C)C)C(=O)N[C@@H](C)C(=O)N[C@@H](CCC(N)=O)C(=O)N[C@@H](CCCCN)C(N)=O)C(C)C)[C@@H](C)CC

What follows are binders tested against T1, human GIP receptor (assay: cell-based or functional assay).

Binder	CisBio cAMP agonism % Efficacy [%]	CisBio cAMP antagonism % inhib [%]	CisBio cAMP antagonism IC50 [nM]	CisBio cAMP antagonism pIC50	DiscoveRx cAMP antagonism % inhib [%]	DiscoveRx cAMP antagonism IC50 [nM]	DiscoveRx cAMP antagonism log IC50 [log M]
B1	0	97	54.1	7.3	100	8	-8.1
B2	6	78	33.5	7.5	100	1	-8.9
B3	3	70	43	7.4	100	4	-8.4
B4	0	91	108	7			
B5	0	65	233	6.6			

Molecular target: T1, human GIP receptor
Assay: cell-based or functional assay
Remark: another data set of the same source

Binder	cAMP antagonism % inhib [%]	cAMP antagonism IC50 [nM]	cAMP antagonism log IC50 [log M]
B4	100	10	-8
B5	100	53	-7.3

Molecular target: T1, human GIP receptor
Assay: cell-based or functional assay
Remark: another data set of the same source

Binder	CisBio cAMP antagonism % inhib [%]	CisBio cAMP antagonism IC50 [nM]	cAMP antagonism % inhib [%]	cAMP antagonism IC50 [nM]
B1	97	54.1	100	8
B2	78	33.5	100	1
B3	70	43	100	4
